Reference: patent publication US10302644B2, “Compositions and methods for treating multiple myeloma” (Dana-Farber Cancer Institute, Inc., priority 2014, dated 2019)
Entries after “also recorded” stand apart in the source; their conditions may differ.

Experiments:
Assay type in all cases: cell-based
p53 = experiment: Immunoblotting of p53 and phosphorylated p53 in MM cells; conditions: MM.1S cells
Description: (§1) MM cells were harvested and lysed using RIPA-lysis buffer (Boston Bioproducts, Ashland, Mass.) containing 5 mM EDTA, 5 mM NaF, 2 mM Na3VO4, 1 mM PMSF, 5 μg/ml leupeptin, and 5 μg/ml aprotinin. Nuclear proteins were extracted using “Nuclear Extraction Kit” (Affimetrix). After the determination of protein concentration using DC protein assay (Bio-Rad, Hercules, Calif.), β-mercaptoethanol (-ME) was added to the whole-cell lysates to a 2% final concentration. The whole cell lysates or nuclear extracts were subjected to SDS-PAGE, transferred to nitrocellulose membranes (Bio-Rad, Hercules, Calif.) or polyvinylidene fluoride membranes (Millipore, Billerica, Mass.), and immunoblotted with indicated Abs. Silver staining was carried out using “SilverQuest Staining Kit®” (Invitrogen), according to manufacturer's protocol.

TP53RK, CRBN = experiment: TP53RK and CRBN expression in MM cells (immunoblotting, qPCR)
Description: as §1
(§2) RNA was extracted using Trizol (Invitrogen) and quantified by a Nanodrop spectrophotometer (Labtech). Specifically, 5×10^6 cells were pelleted, washed with cold PBS, and resuspended in 1 mL Trizol. They were then incubated with 1-Bromo-3-chloropropane (Sigma), washed first with Isopropyl alcohol and then with 75% Ethanol, and resuspended in Nuclease Free-water (Invitrogen). After quantification, 2000 ng of RNA was used to synthesize cDNA via the Superscript II First strand synthesis Kit (Invitrogen), according to the manufacturer's instructions. To evaluate the expression levels of TP53RK, BCL2L11, MYC, Bim, E2F1, TP53, IKZF1, IKZF3, RRM1, p18CDKN2C, PSMB5, PSMB7, PSMA3 and GAPDH, quantitative real time PCR (QRT-PCR) was performed using SYBR GREEN PCR Master Mix (Applied Biosystem), after optimization of the primer conditions. cDNAs were diluted 1:100 or 1:1000 and amplified in a 20 μL reaction. Primers were used at 200 nM or 400 nM concentration. Thermal cycling conditions were: 10 minutes at 95° C., 40 cycles at 95° C. for 15 seconds, followed by 1 minute at 60° C. Real-time quantitative PCR was performed on ABI Prism 7300 Sequence Detection System (Applied Biosystems). Data were analyzed using the delta delta Ct method. GAPDH was used as an invariant control.
pLKO.1-based shRNA vectors were obtained from the RNAi Consortium (Broad Institute). […] After 24 h of infection, cells expressing shRNA were selected with puromycin dihydrochloride (Sigma-Aldrich) at 1-2 μg/ml for 48 h, and then examined for proliferation and/or subjected to immunoblotting analysis. For siRNA transfection, scrambled, TP53RK, CRBN, p53, c-Myc and RRM1 siRNAs were purchased from Thermo Scientific (Lafayette, Colo.). siRNA transfection was carried out by Amaxa electroporation system using “Cell Line Nucleofector® Kit V or C” solution (Lonza, Koln, Germany).

MM cells = experiment: Growth inhibition assay (MTT) / viable cell count (Trypan-blue)
Description: Cell growth was assessed by measuring 3-(4,5-dimethylthiazol-2-yl)-2,5-diphenyl […] bromide (MTT, Chemicon International, Temecula, Calif.) dye absorbance. Cells were pulsed with 10 μl of 5 mg/ml MTT to each well for the last 4 h of 48 h and/or 72 h cultures, followed by 100 μl isopropanol containing 0.04N HCl. Absorbance was measured at 570/630 nm using a spectrophotometer (Molecular Devices Corp., Sunnyvale Calif.).

proteasome = experiment: Proteasome pathway (GSEA, qPCR) and chymotrypsin-like proteasome activity assay; conditions: H929 cells
Description: as §2
Expression data for plasma cells from healthy donors, monoclonal gammopathy of undetermined significance (MGUS), and smoldering myeloma (SMM) were derived from GSE5900 dataset, while expression data from normal plasma cells and 65 MM patients were obtained from GSE4452 dataset, using expression profiling on Affymetrix GeneChip (t test, unpaired, equal variance). […] Data were then normalized and analyzed using D-chip software, seeking statistically significant differences among groups or in p53-target gene expression. Statistical significance was determined by Student t test. The minimal level of significance was P<0.05. […] Gene set enrichment analysis (GSEA) was performed as previously described (2) (GSEA v2.0 at http://www.broad.mit.edu/gsea) using gene set as permutation type, as well as 1,000 permutations and signal to noise as metrics for ranking genes.
Proteasome activity was measured by using Proteasome-Glo™ chymotrypsin-like cell-based assay (Promega, Madison, Wis.) according to manufacturer's protocol.

c-Myc, IKZF1/3 = experiment: c-Myc and IKZF1/3 expression (immunoblotting, qPCR); conditions: MM.1S cells and H929 cells
Description: MM cells were harvested and lysed using RIPA-lysis buffer (Boston Bioproducts, Ashland, Mass.) containing 5 mM EDTA, 5 mM NaF, 2 mM Na3VO4, 1 mM PMSF, 5 μg/ml leupeptin, and 5 μg/ml aprotinin. Nuclear proteins were extracted using “Nuclear Extraction Kit” (Affimetrix). After the determination of protein concentration using DC protein assay (Bio-Rad, Hercules, Calif.), β-mercaptoethanol (-ME) was added to the whole-cell lysates to a 2% final concentration. […]
RNA was extracted using Trizol (Invitrogen) and quantified by a Nanodrop spectrophotometer (Labtech). […] After quantification, 2000 ng of RNA was used to synthesize cDNA via the Superscript II First strand synthesis Kit (Invitrogen), according to the manufacturer's instructions. To evaluate the expression levels of TP53RK, BCL2L11, MYC, Bim, E2F1, TP53, IKZF1, IKZF3, RRM1, p18CDKN2C, PSMB5, PSMB7, PSMA3 and GAPDH, quantitative real time PCR (QRT-PCR) was performed using SYBR GREEN PCR Master Mix (Applied Biosystem), after optimization of the primer conditions. cDNAs were diluted 1:100 or 1:1000 and amplified in a 20 μL reaction. […] Real-time quantitative PCR was performed on ABI Prism 7300 Sequence Detection System (Applied Biosystems). Data were analyzed using the delta delta Ct method. […]

RRM1, p18CDKN2C = experiment: RRM1 and p18CDKN2C expression (RT-qPCR, Western blot); conditions: H929 cells
Description: as §1, §2

hTERT = hTERT expression and telomerase activity (TeloTAGGG Telomerase PCR ELISA); conditions: MM.1S cells and H929 cells
Description: as §1
Telomerase activity in MM.1S and H929 cells was assessed by “TeloTAGGG Telomerase PCR ELISA®” from Roche Applied Science (Mannheim, Germany).

Molecule: CCc1cc(C(N)=O)ccc1-n1nc(C(C)C)c2c(-n3cnc(-c4cnn(C)c4)c3)ccnc21 [TAS-116]
- p-p53 modulation on Akt inhibition (p53): in neither case was p-p53 modulation observed

Molecule: O=C1CCC(N2C(=O)c3ccccc3C2=O)C(=O)N1 (stereo not drawn) [Thal, Thalidomide]
- downstream p-p53 level (p53; 48 h): not
- TP53RK level (TP53RK, CRBN; MM.1S cells, 48 h): not

Molecule: CC(C)C[C@H](NC(=O)[C@H](Cc1ccccc1)NC(=O)c1cnccn1)B(O)O [bortezomib]
- cytotoxicity induced by bortezomib after TP53RK knockdown (MM cells; H929 cells, TP53RK siRNA then BTZ 3 nM 24 h, MTT): further enhanced

B1: CRBN siRNA: SMARTpool of J-021086-9 to -12 siRNAs against CRBN (nucleic acid)
guide 1: CAAUUAGAAUCCCUCAAUA
guide 2: GUAUAAGGCUUGCAACUUG
guide 3: GACAUUACCUCUUCAGCUU
guide 4: CGACUUCGCUGUGAAUUAG
modifications: SMARTpool mixture, further chemistry not given here
notes: SMARTpool of J-021086-9 to -12 siRNAs against CRBN
- chymotrypsin-like proteasome activity (proteasome): not
- TP53RK expression after CRBN knockdown (TP53RK, CRBN; H929 cells): did not change

B2: TP53RK siRNA: SMARTpool of J-003108-09, -10, -11, -12 siRNAs against TP53RK (Table 4) (nucleic acid)
guide 1: GGUAGAAGAAUGUGUAUGA
guide 2: GCUUCCAACUGCUUAUAUA
guide 3: GCUGAACAUUGUGCUCAUA
guide 4: GUACCCAUCCCAACACUGA
modifications: SMARTpool mixture, further chemistry not given here
- MM cell growth, viable cells by Trypan-blue (MM cells; H929 cells, siRNA knockdown): triggered MM cell growth inhibition
- cell growth after knock-down (MM cells; MM.1S and H929 cells): growth inhibition
- IKZF1/3 expression after TP53RK knockdown (c-Myc, IKZF1/3): markedly downregulated
- RRM1 expression (RRM1, p18CDKN2C): downregulation
- p18CDKN2C expression (RRM1, p18CDKN2C): upregulation
- PSMB5 PSMB7 and PSMA3 mRNA (proteasome): downregulation
- chymotrypsin-like proteasome activity (proteasome): significantly inhibited
- poly-ubiquitinated proteins (proteasome): accumulation
- proteasome pathway (GSEA) (proteasome): downregulated
- hTERT expression (hTERT): downregulated
- CRBN expression after TP53RK knock-down (TP53RK, CRBN; H929 cells (also MM.1S)): did not modulate; also recorded: not altered
- TP53RK mRNA levels (TP53RK, CRBN; MM.1S and H929 cells): markedly decreased
